Experimental data taken from the supplement of paper PMC9170038.

System: MS2 coat protein
Experiment: apparent KD of MS2 coat protein; designed switch direction (-1 OFF switch, 1 ON switch): 1; higher = weaker reporter binding
Procedure, shortened: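 Designed RNA switches were transcribed on Illumina chips by stalled E. coli RNA polymerase and titrated with SNAP-549-labelled MS2 coat protein from 0.7 or 1.5 nM, doubling to 3 µM. Step length ran from 0.8–1.5 h at the lowest concentration to 10–20 min at the highest. The apparent KD is the median over clusters for each design, from curve-fitted normalised cluster fluorescence.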

[1] = input ligand: microRNA oligo, concentration not stated
[2] = Eterna round: R95, input ligand: FMN 200 uM
[3] = Eterna round: R95, input ligand: microRNA oligo, concentration not stated
[4] = Eterna round: R95, input ligand: none

Row | Sequence | apparent KD of MS2 coat protein (input ligand: FMN 200 uM) | apparent KD of MS2 coat protein [1] | apparent KD of MS2 coat protein (input ligand: none) | apparent KD of MS2 coat protein [2] | apparent KD of MS2 coat protein [3] | apparent KD of MS2 coat protein [4]
1 | UCUGCAAGAACAGGAUAUGGGUUCAGAGCGGGAGUGCGCUUUGACACAUGAGGAUCACCCAUGUCCCAGAAGGGUUCAUGCGGC [Eseseste] (Eterna round: R96, puzzle: Same State NG 2) | 62.7 nM | 484 nM | 364 nM | – | – | –
2 | UGUUGUAUUACAGGAUAUCUAUGAUUUUUACUUAGAGAAGGGUAUUCACAUGAGGAUCACCCAUGUAUAUACGAGGAAGUUGUG [JMF's solution 67] (Eterna round: R96, puzzle: Same State NG 1) | 47.2 nM | 35.1 nM | 44.2 nM | – | – | –
3 | GGCUAUCGCGUACGAUAGCUUAAGCAUGUACAUGAGGAUCACCCAUGUCAUGUACAAGCUUUUUGCUCGGCUUAUUG (puzzle: Sensor for hsa-mir-208a) | – | – | – | 119 nM | 14.3 nM | 132 nM
4 | UGUUGUUAACUAGGAUAUGGUCACAUGAGGAUCACCCAUGUAAUGUCGAUGCUAUGUGGAUUUGAUCAGAAGGAGUGGUUAACA [SameState NG2 #99] (Eterna round: R96, puzzle: Same State NG 2) | 66.4 nM | 58.8 nM | 58.4 nM | – | – | –
5 | AUACAUAUCAGAGGAUAUCACGUCGAUUAGACGUGAGAAGGCUGAUCACACAUGAAUAUUAAUACAUGAGGAUCACCCAUGUAU [SSNG1/14-A2] (Eterna round: R96, puzzle: Same State NG 1) | 20.6 nM | 14.8 nM | 18.8 nM | – | – | –
6 | GUGGUCAGACAUGAGGAUCACCCAUGUGGAAUAAAUAAGGAAUAGGAUAUCGAAUAUAGGAUAUACGAGAAGGGUUGGUUGGUG (Eterna round: R96, puzzle: Same State NG 3) | – | 80 nM | – | – | – | –
7 | AUUGCUUUCGCAGGAUAUGAUGCGAAAAUUGCGUCAGAAGGGUGGAGUAUCUCAUUGCAACAGGACAUGAGGAUCACCCAUGUC [SameState NG1 #88] (Eterna round: R96, puzzle: Same State NG 1) | 56.7 nM | 140 nM | 248 nM | – | – | –
8 | GUCCGGCUGCCACAGGAUAUACGUGGAUCGACAUGAGGAUCACCCAUGUAUAUCCUAAUAAUUGCGUAGAAGGGUGGUCAGCCGG [Dionbe] (puzzle: Same State 2) | – | – | – | 78.3 nM | 540 nM | 1180 nM
9 | GGAAUAUUUACAGGAUAUGAUUUGUAAAGUCGAUCAGAAGGGUGGAUGUCUUACACGGUUUGUUACAUGAGGAUCACCCAUGUC [SameState NG1 #13] (Eterna round: R96, puzzle: Same State NG 1) | 232 nM | 233 nM | 378 nM | – | – | –
10 | UGGCUCAGACGAGGAUAUAUGUAAUAACAUGAGGAUCACCCAUGUGUCGAGCUUCGGCUCGACACAUAGAAGGCGUCUGAGCCA [SSNG2/2-A2] (Eterna round: R96, puzzle: Same State NG 2) | 14.7 nM | 17.9 nM | 28.2 nM | – | – | –
11 | UAGUACAAGCUUUUUGCUUGUCUUAUUUAACAUGAGGAUCACCCAUGUAAGUUGAAAGUUAGAGAGUGCACCUUCAA [JR_SHM208A_Sub052] (puzzle: Sensor for hsa-mir-208a) | – | – | – | 18.7 nM | 18.9 nM | 17.1 nM
12 | AUAUGAGAAGCAGGAUAUGUGGAGAAGAAACAAACAGAAGGGUUUAUGGGACAACAUGAGGAUCACCCAUGUUCUCUGUGAUGA [AK SSNG1-V2-2] (Eterna round: R96, puzzle: Same State NG 1) | 52.5 nM | 44.3 nM | 59.2 nM | – | – | –
13 | GCCGCGUUUAACGCCUACAUGAGGAUCACCCAUGUAUGUAGGCAGGAUAUCGUUUGCUUUGCAAACGAGAAGGGCUGUAGUGGC [salish99_SSNG3_R04_006] (Eterna round: R96, puzzle: Same State NG 3) | 25.9 nM | 73.9 nM | 80.9 nM | – | – | –
14 | GUGGUGUAGAUACAGGAUAUGUUGCUCGUAACAUGAGGAUCACCCAUGUAUCUAUGAGAAUAAAUGCAGAAGGGUGCACACCACU [Mat - Same State 2 - Mod of UCT - D74] (Eterna round: R96, puzzle: Same State 2) | 26.1 nM | 197 nM | 489 nM | – | – | –
15 | CGUCGUUUGCUAGGAUAUCGCUAUACAUGAGGAUCACCCAUGUUUACCACGCUGGUUUUUCAUACCGAGAAGGAGUCUGAUGUU [salish99_SSNG02_r04_020] (Eterna round: R96, puzzle: Same State NG 2) | 28.8 nM | 24.8 nM | 33 nM | – | – | –
16 | GGUGCAAUAAACGCCUACAUGAGGAUCACCCAUGUAUGUAGGCAGGAUAUCGUUUGCAAAGCAAACGAGAAGGGCUAUAGUACC [Mat - Same State NG 3 - JL Mod - D44] (Eterna round: R96, puzzle: Same State NG 3) | 56.2 nM | 123 nM | 161 nM | – | – | –

Row | Sequence | apparent KD of MS2 coat protein (input ligand: FMN 200 uM) | apparent KD of MS2 coat protein [1] | apparent KD of MS2 coat protein (input ligand: none) | apparent KD of MS2 coat protein [2] | apparent KD of MS2 coat protein [3] | apparent KD of MS2 coat protein [4]
17 | UGGCUCAGACGAGGAUAUAUGCGAUCACAUGAGGAUCACCCAUGUCUCGAGCUUCGGCUCGAGGCAUAGAAGGCGUCUGAGCCU [SSNG2/4-A3] (Eterna round: R96, puzzle: Same State NG 2) | 13 nM | 25.9 nM | 27.7 nM | – | – | –
18 | AGGUAACAUGAGGAUCACCCAUGUAAGGUGAACGUAGGAUAUCGAAGAGGUAGAGUAGGACGAGAAGGACGAGGAA [JR_SS1_Sub091] (puzzle: Same State 1) | – | – | – | 218 nM | 239 nM | 414 nM
19 | UGCUAUUGUAUAUUGGUGCAAGCUUUUUGACAUGAGGAUCACCCAUGUACUCGUCUUUAGCGCAGUCCGUAGACUGC (puzzle: Sensor for hsa-mir-208a) | – | – | – | 52.4 nM | 13.5 nM | 56.6 nM
20 | CUAUCUACAGGUGUCUUUGCUCGUCUUAUACAUGAGGAUCACCCAUGUUAUAGCCCGGUGCUUGCGCUGGGCUGAUU [JL ViennaUCT Tearor mod 6] (puzzle: Sensor for hsa-mir-208a) | – | – | – | 79.8 nM | 13.2 nM | 95.7 nM
21 | GAGUGACAUGAGGAUCACCCAUGUAGAAUAGAACAAGGAUAUGUGGAAGGCGGAGGAGAGACAGAAGGUGUUGAGG [JR_SS1_Sub058] (puzzle: Same State 1) | – | – | – | 52 nM | 77.1 nM | 119 nM
22 | AAAGCACAUGAGGAUCACCCAUGUGGAAAUAACACAGGAUAUCUGACCGAAACUAAGGCGAGAGAAGGGUGACCUA [Engeerbi] (puzzle: Same State 1) | – | – | – | 148 nM | 62.8 nM | 78.9 nM
23 | GGUGGGUUACUACCAACACAUGAGGAUCACCCAUGUUUUGGGAAGGAUAUGGUACCUAUUUGGUACCAGAAGGUCCCGUUGGUG [salish99_SSNG3_r04_705] (Eterna round: R96, puzzle: Same State NG 3) | 28.7 nM | 25.8 nM | 36 nM | – | – | –
24 | GGAGCCGGCACUGAGGAUAUUCAUAUUAAAACAUGAGGAUCACCCAUGUAGGCCAGAAGGCCAUGGGAGAAGGCAGGUCGGCCCG [Bibimoar - 7] (puzzle: Same State 2) | – | – | – | 46.7 nM | 211 nM | 416 nM
25 | ACAUGAGACCGAGGAUAUAUUGUACCUACAUGUGACAUGAGGAUCACCCAUGUGGUAAGUAUGACAUAGAAGGCGGAGAUAUGU [Equivalance 92 - Jieux - Same State NG 2] (Eterna round: R96, puzzle: Same State NG 2) | 19.6 nM | 25.9 nM | 30.1 nM | – | – | –
26 | UACAAUCUAUCUGAGGAUAUCAUGAAAAAAACAUGAGGAUCACCCAUGUGCAGGAAAACUGCAUAUGAGAAGGCAGAUAGAUUGA [salish99_SS2_r3_005] (puzzle: Same State 2) | – | – | – | 27.4 nM | 585 nM | 721 nM
27 | GGAGCCGGCACCGAGGAUAUUCAUAUUAAAACAUGAGGAUCACCCAUGUAGGUCGAAAGACCUUGGGAGAAGGCGGAUCGGCUCG [Xeonanis - 30] (puzzle: Same State 2) | – | – | – | 38.3 nM | 518 nM | 803 nM
28 | ACCCGCGGGCCACAUGAGGAUCACCCAUGUGACCGGUGAUCCAAGGAUAUGUGUAGGGUAGAUGCACAGAAGGUGGCCAAAACU [Ainriqu] (Eterna round: R96, puzzle: Same State NG 3) | 26.6 nM | 14.8 nM | 18.5 nM | – | – | –
29 | UUUGGGUGGCUGGAGGAUAUUCUUGUGGUUACAUGAGGAUCACCCAUGUGCCGCGCGGUGCGCGAGGAGAAGGCUGGCGGCCGUU (puzzle: Same State 2) | – | – | – | 21.7 nM | 48.3 nM | 65.7 nM
30 | AACCGACAUGAGGAUCACCCAUGUAAAUGCAGGGCAGGAUAUCAAUCGGGAGGCCGAAAAUGAGAAGGGCCUAAAA [Onedte] (puzzle: Same State 1) | – | – | – | 46.9 nM | 250 nM | 839 nM
31 | GGAAGGAGGUCAGGAUAUGAAUGGAUGGGACAUGAGGAUCACCCAUGUAAUAGAAGAAAUCUACAUUAGAAGGGACAAGGAAGG [AK SSNG2-V2-5] (Eterna round: R96, puzzle: Same State NG 2) | 105 nM | 83.2 nM | 130 nM | – | – | –
